Biological target: T1, homomeric GluR6 receptor (Rattus norvegicus, UniProt P42260, I567V/Q621R/Y571C)
T1 construct: A 4559 base pair cDNA encoding a protein of 884 amino acid residues was engineered from RC11 and RC27; expressed in transfected cells; host or cells: Xenopus oocytes injected with in vitro transcribed GluR6 RNA
Assay: Homomeric GluR6 ion channel in Xenopus oocytes injected with in vitro transcribed RNA
Format: cell-based

T1 sequence (P42260 with tags, fused parts or gaps I567V/Y571C/Q621R): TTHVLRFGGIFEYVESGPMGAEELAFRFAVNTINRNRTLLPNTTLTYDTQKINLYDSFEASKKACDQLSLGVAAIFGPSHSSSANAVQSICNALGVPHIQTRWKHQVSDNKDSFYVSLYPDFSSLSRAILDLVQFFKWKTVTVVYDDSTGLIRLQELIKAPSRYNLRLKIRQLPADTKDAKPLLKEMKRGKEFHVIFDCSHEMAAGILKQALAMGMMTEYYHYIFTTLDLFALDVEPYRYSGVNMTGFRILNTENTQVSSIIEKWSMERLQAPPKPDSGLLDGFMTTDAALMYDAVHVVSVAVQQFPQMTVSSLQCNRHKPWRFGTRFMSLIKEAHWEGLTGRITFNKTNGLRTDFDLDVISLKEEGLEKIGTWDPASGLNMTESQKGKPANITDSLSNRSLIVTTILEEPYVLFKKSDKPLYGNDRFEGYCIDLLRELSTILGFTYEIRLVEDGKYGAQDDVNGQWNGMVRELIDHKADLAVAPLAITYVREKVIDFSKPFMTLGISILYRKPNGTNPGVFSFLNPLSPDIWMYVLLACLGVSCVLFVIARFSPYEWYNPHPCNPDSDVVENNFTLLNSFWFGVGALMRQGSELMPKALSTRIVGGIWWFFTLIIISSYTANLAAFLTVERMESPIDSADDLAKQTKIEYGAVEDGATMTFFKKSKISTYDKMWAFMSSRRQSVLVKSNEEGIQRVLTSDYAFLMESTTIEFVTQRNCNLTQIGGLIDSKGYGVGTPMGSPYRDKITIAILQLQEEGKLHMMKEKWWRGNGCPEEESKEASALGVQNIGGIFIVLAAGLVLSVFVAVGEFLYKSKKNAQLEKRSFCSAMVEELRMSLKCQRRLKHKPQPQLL

B1: concanavalin A (protein)
chain: STHETNALHFMFNQFSKDQKDLILQGDATTGTDGNLELTRVSSNGSPQGSSVGRALFYAPVHIWESSAVVASFEATFTFLIKSPDSHPADGIAFFISNIDSSIPSGSTGRLLGLFPDANVIRNSTTIDFNAAYNADTIVAVELDTYPNTDIGDPSYPHIGIDIKSVRSKKTAKWNMQNGKVGTAHIIYNSVDKRLSAVVSYPNADSATVSYDVDLDNVLPEWVRVGLSASTGLYKETNTILSWSFTSKLKSN
notes: concanavalin A, used to decrease receptor desensitization
B1 was tested, and the effect on desensitization (10 μM for 5 minutes) was “efficiently decreases desensitization” and the “increase of current elicited by kainate and glutamate compared to peak current before treatment” value (equimolar agonist concentrations) was 75 to 150 fold.
